Results on two molecules are retold here after patent publication EP4717706A1.

The target of assay [1] is VLP2 (virus-like particles, capsid protein particles of AAV serotype 2) (AAV serotype 2 (AAV2)) (UniProt P03135). In words: ELISA on immobilised VLP2 (purified protein); A450 after 1:1 0.1 M glycine-NaOH pH 10.0, 15 min, 66.1°C divided by A450 untreated. (In an ELISA, binding on a coated surface is turned into a signal by an enzyme label.)
The target is the same in assay [2]. In words: ELISA on immobilised VLP2 (culture supernatant); A450 after 1:1 0.1 M glycine-NaOH pH 10.0, 15 min, 51.3°C divided by A450 untreated.
Assay [3] has the same target. The experiment in a line: ELISA on immobilised VLP2 (purified protein); A450 after 1:1 0.1 M glycine-NaOH pH 10.0, 15 min, 55.7°C divided by A450 untreated.
For assay [4] the target is unchanged. In words: ELISA on immobilised VLP2 (purified protein); A450 after 1:1 0.1 M glycine-NaOH pH 10.0, 15 min, 60.1°C divided by A450 untreated.
For assay [5] the target is unchanged. In words: ELISA on immobilised VLP2 (purified protein); A450 after 1:1 0.1 M glycine-NaOH pH 10.0, 15 min, 70°C divided by A450 untreated.
For assay [6] the target is unchanged. In words: ELISA on immobilised VLP2 (culture supernatant); A450 after 1:1 1 M NaOH, 15 min, 30°C divided by A450 untreated.
The target is the same in assay [7]. The experiment in a line: ELISA on immobilised VLP2 (purified protein); start of alkali treatment, the reference of the ratio.
Assay [8] has the same target. The experiment in a line: ELISA on immobilised VLP2 (purified protein, 5 µg/mL); A450 after 1:1 1 M NaOH with 1 mM CaCl2, 30°C, 20 min divided by A450 at 0 time.
For assay [9] the target is unchanged. In words: ELISA on immobilised VLP2 (purified protein, 5 µg/mL); A450 after 1:1 1 M NaOH with 1 mM CaCl2, 30°C, 30 min divided by A450 at 0 time.
For assay [10] the target is unchanged. The experiment in a line: ELISA on immobilised VLP2 (purified protein, 5 µg/mL); A450 after 1:1 1 M NaOH with 1 mM CaCl2, 30°C, 45 min divided by A450 at 0 time.
Assay [11] has the same target. The experiment in a line: ELISA on immobilised VLP2 (purified protein); A450 after 1:1 0.5 M NaOH, 30°C, 30 min divided by A450 at 0 time.
Assay [12] shares this target. The experiment in a line: ELISA on immobilised VLP2 (purified protein, 5 µg/mL); A450 after 1:1 1 M NaOH with 1 mM CaCl2, 30°C, 60 min divided by A450 at 0 time.
The target is the same in assay [13]. The experiment in a line: ELISA on immobilised VLP2 (purified protein, 5 µg/mL); A450 after 1:1 1 M NaOH with 1 mM CaCl2, 30°C, 30 min divided by A450 at 0 time. The source holds these as a separate data set.
Assay [14] shares this target. The description is as above. The source holds these as a separate data set.
The target is the same in assay [15]. The experiment in a line: ELISA on immobilised VLP2 (purified protein); A450 after 1:1 0.5 M NaOH, 30°C, 90 min divided by A450 at 0 time.
For assay [16] the target is unchanged. In words: ELISA on immobilised VLP2 (purified protein, 5 µg/mL); start of alkali treatment, the reference of the ratio.
Assay [17] has the same target. The experiment in a line: ELISA on immobilised VLP2 (purified protein, 5 µg/mL); A450 after 1:1 1 M NaOH with 1 mM CaCl2, 30°C, 30 min divided by A450 at 0 time. This is another data set of the same source.
Assay [18] shares this target. The experiment in a line: ELISA on immobilised VLP2 (purified protein, 5 µg/mL); A450 after 1:1 1 M NaOH with 1 mM CaCl2, 30°C, 60 min divided by A450 at 0 time. This is another data set of the same source.
For assay [19] the target is unchanged. The assay is described as above. The source holds these as a separate data set.

Chain of UniProt P03135 (P03135 whole entry): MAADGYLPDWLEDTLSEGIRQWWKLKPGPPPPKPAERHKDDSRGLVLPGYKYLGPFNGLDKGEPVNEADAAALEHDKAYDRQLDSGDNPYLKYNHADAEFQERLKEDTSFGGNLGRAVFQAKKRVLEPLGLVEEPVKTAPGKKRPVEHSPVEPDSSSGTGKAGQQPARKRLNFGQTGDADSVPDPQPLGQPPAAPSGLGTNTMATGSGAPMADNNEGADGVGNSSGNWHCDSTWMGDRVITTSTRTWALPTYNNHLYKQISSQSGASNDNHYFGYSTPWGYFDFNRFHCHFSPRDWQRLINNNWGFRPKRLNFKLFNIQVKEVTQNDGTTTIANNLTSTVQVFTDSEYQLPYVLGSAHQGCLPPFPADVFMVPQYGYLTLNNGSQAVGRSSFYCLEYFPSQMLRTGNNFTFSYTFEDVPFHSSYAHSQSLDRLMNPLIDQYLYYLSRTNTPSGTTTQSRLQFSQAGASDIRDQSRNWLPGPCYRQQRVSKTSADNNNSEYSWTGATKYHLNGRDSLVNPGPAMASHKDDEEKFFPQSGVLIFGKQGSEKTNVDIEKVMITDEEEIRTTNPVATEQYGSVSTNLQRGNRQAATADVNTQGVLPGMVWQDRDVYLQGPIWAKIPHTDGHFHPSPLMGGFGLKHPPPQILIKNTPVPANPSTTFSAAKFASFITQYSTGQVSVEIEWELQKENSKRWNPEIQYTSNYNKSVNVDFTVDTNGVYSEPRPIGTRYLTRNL

B1: AAV-binding protein AVR8g (receptor)
chain: MGSAGESDQITLPKNEVQLNAYVLQEPPKGETCTYDWQLITHPRDYSGEMEGEHSQILKLSNLTPGLYEFKVIVEGQNAHSEGYVNVTVEPEPRKNRPPIAIVSPQFQEISLPTTSTVIDGSQSTDDDKIVQYHWEELKGPLREEKISEDTAILKLSKLVPGNYTFRLTVVDSDGATDSTTANLTVNKAVDHHHHHH
Turning to B1, the Remaining activity [%] in assay [1] came to 0%; in assay [2], 8.8%; in assay [3], 0.837%; in assay [4], 4.18%; in assay [5], 3.77%.

B2: AVR25c (AVR25a with K467N) (receptor)
chain: MGSAGESDQITLPKHEAQLKVYVLLVPPKGEASTYDWQLITHPRDYSGEMEGEHSQILKLSNLTPGLYEYRAVVEGQNAHSEGYVNVTVEPGPRKNRPPIAIVSPQFQEISLPTTSAVIDGSQSTDDDKIVQYHWEELKGPLREEKISEDTPILKLSNLVPGNYTFRLTVVDTDGATDSTTADLTVNKAVDHHHHHH
Turning to B2, the Remaining activity [%] worked out at 33.5% in assay [6]; 100% in [7]; 12.1% in assay [8]; 22% in assay [9]; 0% in assay [10]; 91.2% in assay [11]. The Remaining activity [%] in assay [12] worked out at 1.96%; in [13] it was 16.3%; in [14], 2.87%; in assay [15], 66.9%; in assay [16], 100%; in assay [17], 5.28%. In addition, the figures for the Remaining activity [%] in assay [18] and in assay [19] were 0.197% and 2.19%, respectively.
